This is an account of results in patent publication US20050053985A1 (PTC THERAPEUTICS, published 2005).

This test addresses SmB/B′ proteins (human, UniProt P14678 1-240). The test can be described thus: co-purification with the His-Flag-tagged bait from stable 293 cells (anti-Flag beads, then Ni beads); SDS-PAGE, Western blot with Y12 antibody (SmB/B′). As to the method: Proteins co-purified with His-Flag-HsSen2, His-Flag-HsSen2deltaEx8, His-Flag-HsSen34, His-Flag-HsSen15 and His-Flag-HsClp1 were analyzed by SDS-PAGE followed by Western blotting with antibodies against Symplekin, CstF64. Y12 antibody that recognizes SmB/B′ proteins was used a negative control.
Complexes purified using the different epitope-tagged subunits of the endonuclease complexes were analyzed by Western blotting using antibodies specific for Symplekin and CstF64, components of the human pre-mRNA 3′-end processing complex. Y12 antibody (known to recognize pre-mRNA splicing snRNP […] proteins) was used as a negative control. […] Similar amounts of 3′-end complexes were purified from all His-Flag-tagged tRNA endonuclease subunits. Since the purification conditions were very stringent and utilized two affinity chromatography steps (see experimental procedures), the interaction between tRNA splicing endonuclease and pre-mRNA 3′-end processing factors is quite robust. Immunoprecipitation under standard salt conditions to more accurately determine the amount of 3′-end factors associated with the tRNA endonuclease was also performed. It was shown that as much as 1% of the 3′-end processing factors are associated with the tRNA endonuclease. […] Furthermore, His-Flag-HsSen2deltaEx8 and His-Flag-HsClp1 were able to associate with a larger proportion of the 3′-end formation complexes (FIG. 29, compare lane 8 and 11 to 7, 9, 10). [0764] 5.2.2.7 Depletion of SEN2 Causes Defects in tRNA Splicing and Pre-mRNA 3′ end Formation
For orientation: Immunoblotting shows a protein as a band on a membrane.

B1: His-Flag-HsSen34 (other, not shown: small tags and cut ends)
chain: MLVVEVANGRSLVWGAEAVQALRERLGVGGRTVGALPRGPRQNSRLGLPLLLMPEEARLLAEIGAVTLVSAPRPDSRHHSLALTSFKRQQEESFQEQSALAAEARETRRQELLEKITEGQAAKKQKLEQASGASSSQEAGSSQAAKEDETSDGQASGEQEEAGPSSSQAGPSNGVAPLPRSALLVQLATARPRPVKARPLDWRVQSKDWPHAGRPAHELRYSIYRDLWERGFFLSAAGKFGGDFLVYPGDPLRFHAHYIAQCWAPEDTIPLQDLVAAGRLGTSVRKTLLLCSPQPDGKVVYTSLQWASLQ
notes: Bait expressed stably in 293 cells; also called His-Flag-Sen34; His-Flag-34
In the case of B1, the binding result is on record as “no binding”.

B2: His-Flag-HsSen2deltaEx8 (other, not shown: small tags and cut ends)
chain: MAEAVFHAPKRKRRVYETYESPLPIPFGQDHGPLKEFKIFRAEMINNNVIVRNAEDIEQLYGKGYFGKGILSRSRPSFTISDPKLVAKWKDMKTNMPIITSKRYQHSVEWAAELMRRQGQDESTVRRILKDYTKPLEHPPVKRNEEAQVHDKLNSGMVSNMEGTAGGERPSVVNGDSGKSGGVGDPREPLGCLQEGSGCHPTTESFEKSVREDASPLPHVCCCKQDALILQRGLHHEDGSQHIGLLHPGDRGPDHEYVLVEEAECAMSEREAAPNEELVQRNRLICRRNPYRIFEYLQLSLEEEPLTIVKLWKAFTVVQPTFRTTYMAYHYFRSKGWVPKVGLKYGTDLLLYRKGPPFYHASYSVIIELVDDHFEGSLRRPLSWKSLAALSRVSVNVSKELMLCYLIKPSTMTDKEMESPECMKRIKVQEVILSRWVSSRERSDQDDL
notes: also called His-Flag-Sen2ΔEx8; His-Flag-Sen2deltaEx8
For B2, the binding result was “no binding”.

B3: His-Flag-HsSen2 (other, not shown: small tags and cut ends)
chain: MAEAVFHAPKRKRRVYETYESPLPIPFGQDHGPLKEFKIFRAEMINNNVIVRNAEDIEQLYGKGYFGKGILSRSRPSFTISDPKLVAKWKDMKTNMPIITSKRYQHSVEWAAELMRRQGQDESTVRRILKDYTKPLEHPPVKRNEEAQVHDKLNSGMVSNMEGTAGGERPSVVNGDSGKSGGVGDPREPLGCLQEGSGCHPTTESFEKSVREDASPLPHVCCCKQDALILQRGLHHEDGSQHIGLLHPGDRGPDHEYVLVEEAECAMSEREAAPNEELVQRNRLICRRNPYRIFEYLQLSLEEAFFLVYALGCLSIYYEKEPLTIVKLWKAFTVVQPTFRTTYMAYHYFRSKGWVPKVGLKYGTDLLLYRKGPPFYHASYSVIIELVDDHFEGSLRRPLSWKSLAALSRVSVNVSKELMLCYLIKPSTMTDKEMESPECMKRIKVQEVILSRWVSSRERSDQDDL
notes: Bait expressed stably in 293 cells and purified with its partners over anti-Flag and Ni beads; also called His-Flag-Sen2; His-Flag-Sen2WT
Consider B3, for which the binding result is recorded as “no binding”.

B4: His-Flag-HsSen15 (other)
chain: MEERGDSEPTPGCSGLGPGGVRGFGDGGGAPSWAPEDAWMGTHPKYLEMMELDIGDATQVYVAFLVYLDLMESKSWHEVNCVGLPELQLICLVGTEIEGEGLQTVVPTPITASLSHNRIREILKASRKLQGDPDLPMSFTLAIVESDSTIVYYKLTDGFMLPDPQNISLRR
notes: Bait expressed stably in 293 cells; also called His-Flag-Sen15; tagged HsSen15; not shown: His and Flag tag from the His-Flag-pcDNA3.1/Hygro vector
B4: the binding result is listed as “no binding”.
